Laboratory results taken from patent US20230212554A1.
Numbering of substitutions follows the chain as printed.

B1: NP22 (antibody, V domains shown)
VH: EVQLVESGGGLVQPGGSLRLSCAASGFTISDWSIHWVRQAPGKGLEWVAGIWPYWGSTSYADSVKGRFTISADTSKNTAYLQMNSLRAEDTAVYYCARGFYSWFDYWGQGTLVTVSS
VL: DIQMTQSPSSLSASVGDRVTITCRASQDVFSWVAWYQQKPGKAPKLLISSASSLYSGVPSRFSGSGSGTDFTLTISSLQPEDFATYYCQQSWDYPITFGQGTKVEIKR
B2: NP5 (antibody, V domains shown)
VH: EVQLVESGGGLVQPGGSLRLSCAASGFTISNGSIHWVRQAPGKGLEWVAGIWPSGGSTSYADSVKGRFTISADTINNSAYLQMNSLRAEDTAVYYCARWNYWGQGTLVTVSS
VL: DIQMTQSPSSLSASVGDRVTITCRASQDVGWSVAWYQQKPGKAPKLLIYGSRWLYSGVPSRFSGSGSGTDFTLTISSLQPEDFATYYCQQGYNGPLTFGQGTKVEIKR
B3: NP18 (antibody, V domains shown)
VH: EVQLVESGGGLVQPGGSLRLSCAASGFTISGGGIHWVRQAPGKGLEWVASIWPSWGSTSYADSVKGRFTISADTSKNTAYLQMNSLRAEDTAVYYCARFHNGGFLVMDYWGQGTLVTVSS
VL: B2 VL with P8S, W31Y, S32Y, S51P, W53F, G91Y, Y92S, G94W, L96I
B4: NP6 (antibody, V domains shown)
VH: EVQLVESGGGLVQPGGSLRLSCAASGFTINDGSIHWVRQAPGKGLEWVAGIGPFGGFTYYADSVKGRFTISADTSKNTAYLQMNSLRAEDTAVYYCARSGYSGSFDYWGQGTLVTVSS
VL: B2 VL with G30Y, W31F, S32G, S51T, R52S, W53Y, G91F, Y92S, G94W, L96I
B5: NP19 (antibody, V domains shown)
VH: EVQLVESGGGLVQPGGSLRLSCAASGFTISSWGIHWVRQAPGKGLEWVAGIGPFWGYTSYADSVKGRFTISADTSKNTAYLQMNSLRAEDTAVYYCARFGVDNYGYMDYWGQGTLVTVSS
VL: DIQMTQSPSSLSASVGDRVTITCRASQDVSGWVAWYQQKPGKAPKLLISWSTGLYSGVPSRFSGSGSGTDFTLTISSLQPEDFATYYCQQYFNFPVTFGQGTKVEIKR
B6: NP7 (antibody, V domains shown)
VH: EVQLVESGGGLVQPGGSLRLSCAASGFTISNGGIHWVRQAPGKGLEWVAGIGPYGGFTSYADSVKGRFTISADTSKNTAYLQMNSLRAEDTAVYYCARFYSNYYGYHGVMDYWGQGTLVTVSS
VL: B5 VL with S30F, W50Y, T52A, G53S, F94Y, V96L
B7: NP21 (antibody, V domains shown)
VH: EVQLVESGGGLVQPGGSLRLSCAASGFTINGYGIHWVRQAPGKGLEWVAGIWPYGGSTFYADSVKGRFTISADTSKNTAYLQMNSLRAEDTAVYYCARFYNNHGGIMDYWGQGTLVTVSS
VL: B2 VL with G30Y, W31F, S32Y, G91Y, Y92S, G94F, L96V
B8: NP15 (antibody, V domains shown)
VH: EVQLVESGGGLVQPGGSLRLSCAASGFTISNWYIHWVRQAPGKGLEWVAGIGPYGGSTYYADSVKGRFTISADTSKNTAYLQMNSLRAEDTAVYYCARFHWDHLHGMDYWGQGTLVTVSS
VL: B5 VL with S30D, G31N, W32N, W50Y, F92W, F94Y, V96I
B9: NP3 (antibody, V domains shown)
VH: B7 VH with N30S, G31N, Y54F, S57F, F59S, Y100H, N101W, H103D, G104H, I106Y
VL: B2 VL with S32Y, G50S, S51T, R52T, W53G, G91Y, G94Y, L96I
B10: NP17 (antibody, V domains shown)
VH: B7 VH with N30S, Y32G, G33S, G50S, Y54F, Y100G, N101H, N102G, G104N, G105V
VL: B1 VL with F30G, S31Y, W32S, A51P, S52G, S53G, S91Y, W92Y, I96V
B11: NP16 (antibody, V domains shown)
VH: EVQLVESGGGLVQPGGSLRLSCAASGFTIGNSGIHWVRQAPGKGLEWVAWIGPYWGFTSYADSVKGRFTISADTSKNTAYLQMNSLRAEDTAVYYCARFGNHWHLFMDYWGQGTLVTVSS
VL: B5 VL with S30G, G31S, W32Y, S51T, N93S, F94Y

Columns and labels:
[1] = substrate: NP of A/Wisconsin/67/2005(H3N2/H3W) (influenza A virus A/Wisconsin/67/2005 (H3N2)); experiment: sandwich ELISA, capture IgG; NP of lysed virus titrated; HRP-NP17 detection
[2] = substrate: NP of A/Wisconsin/67/2005(H3N2/H3W) (influenza A virus A/Wisconsin/67/2005 (H3N2)); experiment: sandwich ELISA, capture IgG; NP of lysed virus titrated; HRP-NP16 detection
[3] = substrate: NP of A/Wisconsin/67/2005(H3N2/H3W) (influenza A virus A/Wisconsin/67/2005 (H3N2)); experiment: ELISA on virus-infected fixed MDCK cells

NP of A/Wisconsin/67/2005(H3N2/H3W) (influenza A virus A/Wisconsin/67/2005 (H3N2)), sequence (P03466 whole entry): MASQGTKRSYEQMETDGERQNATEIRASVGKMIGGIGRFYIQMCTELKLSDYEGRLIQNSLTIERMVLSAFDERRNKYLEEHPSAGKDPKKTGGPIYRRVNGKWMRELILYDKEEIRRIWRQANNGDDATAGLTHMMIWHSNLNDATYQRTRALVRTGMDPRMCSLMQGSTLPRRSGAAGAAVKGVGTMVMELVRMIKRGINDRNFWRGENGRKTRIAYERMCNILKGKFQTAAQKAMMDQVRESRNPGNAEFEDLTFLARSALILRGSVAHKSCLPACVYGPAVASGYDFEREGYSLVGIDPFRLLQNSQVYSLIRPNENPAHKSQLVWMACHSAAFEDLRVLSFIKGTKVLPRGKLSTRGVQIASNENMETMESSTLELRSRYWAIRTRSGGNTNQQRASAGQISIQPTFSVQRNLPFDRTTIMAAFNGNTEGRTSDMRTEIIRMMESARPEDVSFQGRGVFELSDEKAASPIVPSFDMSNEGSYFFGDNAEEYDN

| Binder | EC50 [1] [nM] | EC50 [2] [nM] | EC50 [3] [nM] |
| --- | --- | --- | --- |
| B1 | 82.8 | 91.4 |  |
| B2 | 0.879 | 3.13 |  |
| B3 | 1000 |  | 0.192 |
| B4 | 1.98 | 2.7 |  |
| B5 | 0.765 | 3.88 | 0.215 |
| B6 | 0.821 | 2.26 |  |
| B7 | 0.848 | 2.88 |  |
| B8 | 0.779 | 2.52 | 0.449 |
| B9 | 0.828 | 1.81 | 0.25 |
| B10 | 1.07 | 3.09 |  |
| B11 | 0.891 | 4.1 | 0.248 |
